Patent US20250000946A1 (WUXI BIOLOGICS IRELAND, published 2025)

T1: Human IL-2Rα/β/γ complex (high affinity IL-2 receptor) (human, UniProt P01589 22-272; P14784 27-551; P31785 23-369)
T1 construct: whole, on cells
T1 sequence (looked up) 1: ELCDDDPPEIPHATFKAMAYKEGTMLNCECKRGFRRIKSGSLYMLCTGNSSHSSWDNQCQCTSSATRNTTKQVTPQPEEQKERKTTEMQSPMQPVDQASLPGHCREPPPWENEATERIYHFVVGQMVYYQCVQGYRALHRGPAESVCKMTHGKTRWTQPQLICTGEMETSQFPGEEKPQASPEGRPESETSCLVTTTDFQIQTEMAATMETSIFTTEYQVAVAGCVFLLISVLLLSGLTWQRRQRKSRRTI
T1 sequence (looked up) 2: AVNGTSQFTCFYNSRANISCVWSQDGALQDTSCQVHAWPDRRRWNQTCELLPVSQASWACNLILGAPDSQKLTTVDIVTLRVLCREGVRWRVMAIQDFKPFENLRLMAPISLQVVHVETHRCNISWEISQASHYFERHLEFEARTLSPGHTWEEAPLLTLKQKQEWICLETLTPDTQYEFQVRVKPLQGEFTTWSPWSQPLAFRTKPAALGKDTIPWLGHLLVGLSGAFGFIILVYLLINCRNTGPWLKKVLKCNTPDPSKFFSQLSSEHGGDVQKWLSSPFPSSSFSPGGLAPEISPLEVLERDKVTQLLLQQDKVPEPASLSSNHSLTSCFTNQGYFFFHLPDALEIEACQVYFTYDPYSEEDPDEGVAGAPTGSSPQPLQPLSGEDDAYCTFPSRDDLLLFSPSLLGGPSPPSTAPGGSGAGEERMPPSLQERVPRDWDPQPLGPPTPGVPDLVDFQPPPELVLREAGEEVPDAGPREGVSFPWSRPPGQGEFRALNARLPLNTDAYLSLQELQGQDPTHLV
T1 sequence (looked up) 3: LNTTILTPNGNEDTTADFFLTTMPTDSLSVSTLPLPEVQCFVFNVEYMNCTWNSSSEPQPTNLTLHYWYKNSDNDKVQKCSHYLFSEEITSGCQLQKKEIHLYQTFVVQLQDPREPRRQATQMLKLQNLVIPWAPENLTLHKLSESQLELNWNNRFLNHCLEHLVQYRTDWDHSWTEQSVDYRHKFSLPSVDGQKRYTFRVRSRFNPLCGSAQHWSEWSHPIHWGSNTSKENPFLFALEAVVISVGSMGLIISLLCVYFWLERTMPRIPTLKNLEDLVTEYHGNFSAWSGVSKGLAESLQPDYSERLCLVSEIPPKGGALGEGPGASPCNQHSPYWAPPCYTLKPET

T2: Human IL-2Rβ/γ (intermediate affinity IL-2 receptor) (human, UniProt P14784 27-551; P31785 23-369)
T2 construct: whole, on cells; also called IL-2Rβ/γc; IL-2Rβ (CD122) and γ (CD132)
T2 sequence (looked up) 1: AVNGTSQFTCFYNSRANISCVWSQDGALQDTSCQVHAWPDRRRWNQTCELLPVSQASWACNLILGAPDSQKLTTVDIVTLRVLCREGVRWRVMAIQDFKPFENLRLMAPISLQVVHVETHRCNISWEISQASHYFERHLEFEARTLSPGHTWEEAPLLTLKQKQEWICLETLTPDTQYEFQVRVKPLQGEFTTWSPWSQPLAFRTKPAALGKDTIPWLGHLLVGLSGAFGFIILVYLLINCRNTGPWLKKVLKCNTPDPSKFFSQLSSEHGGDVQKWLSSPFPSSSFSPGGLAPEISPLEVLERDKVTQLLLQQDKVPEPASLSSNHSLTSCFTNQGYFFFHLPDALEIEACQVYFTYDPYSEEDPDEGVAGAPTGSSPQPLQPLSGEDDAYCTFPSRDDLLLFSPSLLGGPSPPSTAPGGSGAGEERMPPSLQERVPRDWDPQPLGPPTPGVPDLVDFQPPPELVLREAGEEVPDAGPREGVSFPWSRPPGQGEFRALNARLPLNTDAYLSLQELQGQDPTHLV
T2 sequence (looked up) 2: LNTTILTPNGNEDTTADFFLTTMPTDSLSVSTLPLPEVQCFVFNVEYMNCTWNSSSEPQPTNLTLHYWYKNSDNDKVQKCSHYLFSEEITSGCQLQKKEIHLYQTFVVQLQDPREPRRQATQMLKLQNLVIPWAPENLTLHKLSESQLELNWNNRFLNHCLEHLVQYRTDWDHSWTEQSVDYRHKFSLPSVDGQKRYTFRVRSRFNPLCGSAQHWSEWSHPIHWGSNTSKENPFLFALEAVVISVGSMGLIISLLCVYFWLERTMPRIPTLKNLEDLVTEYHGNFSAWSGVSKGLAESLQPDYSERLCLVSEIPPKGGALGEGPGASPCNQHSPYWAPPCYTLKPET


Experiments:
[1] = biological target: T1, Human IL-2Rα/β/γ complex (high affinity …); test: FACS, NK92 cells
In short: (§1)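 HH (IL-2Rβ/γ), MJ20 and NK92 (IL-2Rα/β/γ) cells incubated with IL-2/Fc fusion proteins at indicated concentrations, 30 min at 4° C to avoid internalization. Bound protein detected with PE-anti-human Fc, 30 min at 4° C; median fluorescence intensity read by FACS.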

[2] = biological target: T1, Human IL-2Rα/β/γ complex (high affinity …); test: FACS, NK92 cells; EC50 fold vs T2U0.E44-1
In short: as §1

[3] = biological target: T2, Human IL-2Rβ/γ (intermediate affinity …); test: FACS, HH cells; EC50 fold vs T2U0.E44-1
Protocol: (§2) Human cutaneous T cell lymphoma HH cells, malignant non-Hodgkin's lymphoma NK92 cells and cutaneous T cell lymphoma MJ20 cells were used for binding assay. They both constitutively express IL-2Rβ (CD122) and […] (CD132), and NK92 and MJ20 also expresses IL-2Rα (CD25). HH, NK92 and MJ20 cells were cultured following ATCC guidance, then transferred to a 96-plate for binding analysis. Cells were incubated with IL-2/Fc fusion proteins at the indicated concentrations for 30 min at 4° C. to avoid internalization. Binding was detected by 2nd antibody of PE-anti-human Fc at 4° C. for another 30 min. The median fluorescence intensity (MFI) on HH and NK92 cells was measured using FACS.

[4] = biological target: T2, Human IL-2Rβ/γ (intermediate affinity …); test: cell-based or functional assay
[5] = biological target: T1, Human IL-2Rα/β/γ complex (high affinity …); test: cell-based or functional assay
[6] = biological target: T2, Human IL-2Rβ/γ (intermediate affinity …); test: FACS, HH cells
Protocol: as §2

Binder	EC50 [1] [nM]	Affinity reduction [2] [fold]	Affinity reduction [3] [fold]	Human CD8+ T Potency EC50 (STAT5 phosphorylation) [4] [nM]	Human CD8+ T Potency reduction [4] [fold]	Human Treg Potency EC50 (STAT5 phosphorylation) [5] [nM]	Human Treg Potency reduction [5] [fold]	EC50 [6] [nM]
W3XX115-T2U0.E44-15.uIgG4V1 (Fc fusion, IL-2 del STLT and F42V; E44 format, IgG4) APTSSSTKKTQLQLEHLLLDLQMILNGINNYKNPKLTRMLTVKFYMPKKATELKHLQCLEEELKPLEEVLNLAQSKNFHLRPRDLISNINVIVLELKGSETTFMCEYADETATIVEFLNRWITFCQSIIESKYGPPCPPCPAPEFLGGPSVFLFPPKPKDTLMISRTPEVTCVVVDVSQEDPEVQFNWYVDGVEVHNAKTKPREEQFNSTYRVVSVLTVLHQDWLNGKEYKCKVSNKGLPSSIEKTISKAKGQPREPQVYTLPPCQEEMTKNQVSLWCLVKGFYPSDIAVEWESNGQPENNYKTTPPVLDSDGSFFLYSRLTVDKSRWQEGNVFSCSVMHEALHNHYTQKSLSLSLG heavy: EIQLQQSGPELVKPGASVKVSCKASGYSFTDYNMYWVKQSHGESLEWIGYIDPYNGGTRYNQKFKGKATLTVDKSSSTAFMHLNSLTSEDSAVYYCARNGHWDGAWFAYWGQGTLVTVSAASTKGPSVFPLAPCSRSTSESTAALGCLVKDYFPEPVTVSWNSGALTSGVHTFPAVLQSSGLYSLSSVVTVPSSSLGTKTYTCNVDHKPSNTKVDKRVESKYGPPCPPCPAPEFLGGPSVFLFPPKPKDTLMISRTPEVTCVVVDVSQEDPEVQFNWYVDGVEVHNAKTKPREEQFNSTYRVVSVLTVLHQDWLNGKEYKCKVSNKGLPSSIEKTISKAKGQPREPQVCTLPPSQEEMTKNQVSLSCAVKGFYPSDIAVEWESNGQPENNYKTTPPVLDSDGSFFLVSRLTVDKSRWQEGNVFSCSVMHEALHNHYTQKSLSLSLG light: DIQMNQSPSSLSASLGDTITITCHASQNINVWLSWYQQKPGNIPKLLIYKASNLHTGVPSRFSGSRSGTGFTLTISSLQPEDIATYYCHQGQSYPFTFGSGTKLEIKRTVAAPSVFIFPPSDEQLKSGTASVVCLLNNFYPREAKVQWKVDNALQSGNSQESVTEQDSKDSTYSLSSTLTLSKADYEKHKVYACEVTHQGLSSPVTKSFNRGEC	2740	91.6	18.8	312	30.3	54.9	4620	~470
W3XX115-T2U0.E44-19.uIgG4V1 (Fc fusion, IL-2 del STLT and F42M; E44 format, IgG4) APTSSSTKKTQLQLEHLLLDLQMILNGINNYKNPKLTRMLTMKFYMPKKATELKHLQCLEEELKPLEEVLNLAQSKNFHLRPRDLISNINVIVLELKGSETTFMCEYADETATIVEFLNRWITFCQSIIESKYGPPCPPCPAPEFLGGPSVFLFPPKPKDTLMISRTPEVTCVVVDVSQEDPEVQFNWYVDGVEVHNAKTKPREEQFNSTYRVVSVLTVLHQDWLNGKEYKCKVSNKGLPSSIEKTISKAKGQPREPQVYTLPPCQEEMTKNQVSLWCLVKGFYPSDIAVEWESNGQPENNYKTTPPVLDSDGSFFLYSRLTVDKSRWQEGNVFSCSVMHEALHNHYTQKSLSLSLG heavy: EIQLQQSGPELVKPGASVKVSCKASGYSFTDYNMYWVKQSHGESLEWIGYIDPYNGGTRYNQKFKGKATLTVDKSSSTAFMHLNSLTSEDSAVYYCARNGHWDGAWFAYWGQGTLVTVSAASTKGPSVFPLAPCSRSTSESTAALGCLVKDYFPEPVTVSWNSGALTSGVHTFPAVLQSSGLYSLSSVVTVPSSSLGTKTYTCNVDHKPSNTKVDKRVESKYGPPCPPCPAPEFLGGPSVFLFPPKPKDTLMISRTPEVTCVVVDVSQEDPEVQFNWYVDGVEVHNAKTKPREEQFNSTYRVVSVLTVLHQDWLNGKEYKCKVSNKGLPSSIEKTISKAKGQPREPQVCTLPPSQEEMTKNQVSLSCAVKGFYPSDIAVEWESNGQPENNYKTTPPVLDSDGSFFLVSRLTVDKSRWQEGNVFSCSVMHEALHNHYTQKSLSLSLG light: DIQMNQSPSSLSASLGDTITITCHASQNINVWLSWYQQKPGNIPKLLIYKASNLHTGVPSRFSGSRSGTGFTLTISSLQPEDIATYYCHQGQSYPFTFGSGTKLEIKRTVAAPSVFIFPPSDEQLKSGTASVVCLLNNFYPREAKVQWKVDNALQSGNSQESVTEQDSKDSTYSLSSTLTLSKADYEKHKVYACEVTHQGLSSPVTKSFNRGEC	522	74.6	15.9	185	18	0.53	44.5	398
W3XX115-T2U0.E44-16.uIgG4V1 (Fc fusion, IL-2 del STLT and F42I; E44 format, IgG4) APTSSSTKKTQLQLEHLLLDLQMILNGINNYKNPKLTRMLTIKFYMPKKATELKHLQCLEEELKPLEEVLNLAQSKNFHLRPRDLISNINVIVLELKGSETTFMCEYADETATIVEFLNRWITFCQSIIESKYGPPCPPCPAPEFLGGPSVFLFPPKPKDTLMISRTPEVTCVVVDVSQEDPEVQFNWYVDGVEVHNAKTKPREEQFNSTYRVVSVLTVLHQDWLNGKEYKCKVSNKGLPSSIEKTISKAKGQPREPQVYTLPPCQEEMTKNQVSLWCLVKGFYPSDIAVEWESNGQPENNYKTTPPVLDSDGSFFLYSRLTVDKSRWQEGNVFSCSVMHEALHNHYTQKSLSLSLG heavy: EIQLQQSGPELVKPGASVKVSCKASGYSFTDYNMYWVKQSHGESLEWIGYIDPYNGGTRYNQKFKGKATLTVDKSSSTAFMHLNSLTSEDSAVYYCARNGHWDGAWFAYWGQGTLVTVSAASTKGPSVFPLAPCSRSTSESTAALGCLVKDYFPEPVTVSWNSGALTSGVHTFPAVLQSSGLYSLSSVVTVPSSSLGTKTYTCNVDHKPSNTKVDKRVESKYGPPCPPCPAPEFLGGPSVFLFPPKPKDTLMISRTPEVTCVVVDVSQEDPEVQFNWYVDGVEVHNAKTKPREEQFNSTYRVVSVLTVLHQDWLNGKEYKCKVSNKGLPSSIEKTISKAKGQPREPQVCTLPPSQEEMTKNQVSLSCAVKGFYPSDIAVEWESNGQPENNYKTTPPVLDSDGSFFLVSRLTVDKSRWQEGNVFSCSVMHEALHNHYTQKSLSLSLG light: DIQMNQSPSSLSASLGDTITITCHASQNINVWLSWYQQKPGNIPKLLIYKASNLHTGVPSRFSGSRSGTGFTLTISSLQPEDIATYYCHQGQSYPFTFGSGTKLEIKRTVAAPSVFIFPPSDEQLKSGTASVVCLLNNFYPREAKVQWKVDNALQSGNSQESVTEQDSKDSTYSLSSTLTLSKADYEKHKVYACEVTHQGLSSPVTKSFNRGEC	~310	44.3	18.9	251	24.4	31.2	2620	472
